Data taken from article PMC3272785.

Substrate: Nc1nc(=O)[nH]cc1F
Assay: steady-state kinetics
Type: biochemical, Saccharomyces cerevisiae
Conditions: Zn2+

B1: yeast cytosine deaminase (yCD) (Saccharomyces cerevisiae S288C) (protein)
chain: MASKWDQKGMDIAYEEAALGYKEGGVPIGGCLINNKDGSVLGRGHNMRFQKGSATLHGEISTLENCGRLEGKVYKDTTLYTTLSPCDMCTGAIIMYGIPRCVVGENVNFKSKGEKYLQTRGHEVVVVDDERCKKIMKQFIDERPQDWFEDIGE
In the case of B1, the Km is reported as 160 ± 10 µM, the kcat is reported as 17 ± 0.4 s⁻¹ and the kcat/Km is reported as 106000 M⁻¹ s⁻¹.
